Values belong to the binder of their own block, whether it stands above or below them.
Columns and labels:
Assay in all cases: cell-based or functional assay
[1] = biological target: T1, MET on NCI-H596 cells (MET exon14 skip mutation) (human, UniProt P08581 25-1390)
[2] = biological target: T1, MET on NCI-H596 cells (MET exon14 skip …); remark: listed apart in the source
MET on EBC-1 cells = biological target: T2, MET on EBC-1 cells (human, UniProt P08581 25-1390)
T2 chain: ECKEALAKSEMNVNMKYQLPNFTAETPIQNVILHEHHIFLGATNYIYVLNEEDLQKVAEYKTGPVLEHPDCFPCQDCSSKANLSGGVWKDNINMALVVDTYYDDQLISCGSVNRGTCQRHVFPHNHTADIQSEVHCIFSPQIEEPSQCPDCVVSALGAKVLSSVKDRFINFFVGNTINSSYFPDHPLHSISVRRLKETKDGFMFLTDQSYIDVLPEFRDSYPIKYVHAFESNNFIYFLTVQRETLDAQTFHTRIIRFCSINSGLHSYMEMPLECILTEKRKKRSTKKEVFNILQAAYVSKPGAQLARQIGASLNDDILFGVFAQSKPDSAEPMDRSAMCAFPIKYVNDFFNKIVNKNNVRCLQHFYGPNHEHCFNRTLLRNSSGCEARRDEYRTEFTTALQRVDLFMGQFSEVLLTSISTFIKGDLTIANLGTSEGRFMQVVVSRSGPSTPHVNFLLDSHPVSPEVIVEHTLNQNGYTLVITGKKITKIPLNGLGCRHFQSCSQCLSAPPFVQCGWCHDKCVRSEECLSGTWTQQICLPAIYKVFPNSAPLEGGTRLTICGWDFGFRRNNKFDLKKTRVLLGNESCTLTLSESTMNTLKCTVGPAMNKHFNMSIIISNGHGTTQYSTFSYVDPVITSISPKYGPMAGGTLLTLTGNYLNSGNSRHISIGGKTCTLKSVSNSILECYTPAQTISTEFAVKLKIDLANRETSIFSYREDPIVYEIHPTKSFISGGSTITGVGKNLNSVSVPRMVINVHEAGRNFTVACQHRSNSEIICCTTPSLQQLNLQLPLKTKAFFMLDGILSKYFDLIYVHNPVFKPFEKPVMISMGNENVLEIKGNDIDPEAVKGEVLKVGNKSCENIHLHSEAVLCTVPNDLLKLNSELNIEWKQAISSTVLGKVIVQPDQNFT

Relative MET Level (immunoblot, 18 hours, 5 µg/ml, NCI-H596) [1]: 0.35 relative to hFc control
Relative Cell Growth (n = 3), NCI-H596 in soft agar, 5 µg/ml, two weeks [2]: 1.69 relative to control (no treatment)
B1: H4H13312P2 (antibody, V domains shown)
VH: EVQLVESGGGLVQPGGSLRLSCAASGFIVTTNYMTWLRQAPGKGLEWVSLIYSSGHTYYADSVKGRFTISRHNSKNTLYLQMDSLRAEDTAVYYCASAFAADVFDIWGQGTMVTVSS
VL: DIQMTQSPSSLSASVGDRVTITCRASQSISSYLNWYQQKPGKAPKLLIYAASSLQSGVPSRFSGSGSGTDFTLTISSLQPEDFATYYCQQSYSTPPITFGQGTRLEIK

Relative MET Level (immunoblot, 18 hours, 5 µg/ml, NCI-H596) [1]: 0.5 relative to hFc control
Relative Cell Growth (n = 3), NCI-H596 in soft agar, 5 µg/ml, two weeks [2]: 2.96 relative to control (no treatment)
B2: H4H13306P2 (antibody, V domains shown)
VH: EVQLVESGGGLVQPGTSLRLSCAASGFTFDDYAMHWVRQAPGKGLEWVSGITWNSYNIDYADSVKGRFTISRDNAKNSLYLQMNSLRAEDTALYYCAKDDDYSNYVYFDYWGQGTLVTVSS
VL: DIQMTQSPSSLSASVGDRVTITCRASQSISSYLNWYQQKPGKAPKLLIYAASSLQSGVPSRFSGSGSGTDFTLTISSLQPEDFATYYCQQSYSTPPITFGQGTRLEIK

Relative MET Level (immunoblot, 18 hours, 5 µg/ml, NCI-H596) [1]: 0.24 relative to hFc control
Relative Cell Growth (n = 3), NCI-H596 in soft agar, 5 µg/ml, two weeks [2]: 1.07 relative to control (no treatment)
Relative Cell Growth (n = 3), EBC-1, 0.1 µg/mL, 5 days (MET on EBC-1 cells): 0.397 relative to control
Relative Cell Growth (n = 3), EBC-1, 1 µg/mL, 5 days (MET on EBC-1 cells): 0.462 relative to control
B3: H4H14639D Bispecific Antibody (bispecific antibody, V domains shown)
VH 1: B2 VH
VH 2: B1 VH
VL: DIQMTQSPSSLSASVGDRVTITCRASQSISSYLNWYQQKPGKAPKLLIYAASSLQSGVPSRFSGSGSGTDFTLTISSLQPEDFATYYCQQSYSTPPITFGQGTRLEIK
